Results: the DeepSol protein solubility set

Test: soluble on expression in E. coli; label from the status in PepcDB or PDB records

Row | Sequence | soluble on expression in E. coli
1 | MAETQFTRFPFQPFIIEAIKTLRFYKPTEIQERIIPGALRGESMVGQSQTGTGKTHAYLLPIMEKIKPERAEVQAVITAPTRELATQIYHETLKITKFCPKDRMIVARCLIGGTDKQKALEKLNVQPHIVIGTPGRINDFIREQALDVHTAHILVVDEADLMLDMGFITDVDQIAARMPKDLQMLVFSATIPEKLKPFLKKYMENPTFVHVLEHHHHHH | soluble
2 | MGILDHPSSSSGIQSGGGTFGIDWAKWFPPVTSRSFLSHYLPASGALSHTLYTVHLFSPNIISSLFPTGDLAVSNTILFNANVGLGFYVYFRRHLHRVNPWERVEFSVLSSTLFNFGSLLAAVLIKALIPAKSPTWLKSLTATVLSGYLLSRAAKYMGILDHRSSRGSVSPARSVLSRRQTASRSSHAAEVTPPPASYAPETPRSVASTSYYSPSELHLDTTSSVQLETPPQSHESGSFMPMTPSATEHSSSEFGQDLEDAGDRHENYRYLHSYALNNLNHSRPKKETILRRTTMNQKNQLATPQKQLRRSSETMAPMCFVTPEPSWKELDVGVYTPPPSRMDFTPQASKKLTKSSKSVKIIQKKSRRIPNEKDDFDRFLDAVQWHAPLILVPVAFGCWITGSVPILSPTLRFIFA | not soluble
3 | MSLNAIHRILMTTDGSITAIIEAVTQKKVEVETLEQKIIRADRELAELLEIDEGDEVNYRVVYLRANGEIYAKAISFTPLKRLENSFREDLMRADIPIGKIMRKHNIEARREIRWSRVEEADLALAKELGIADRRVISRNYNIIHRGKVLINITEFFPMERFRIEGYHHHHH | soluble
4 | MSLRILDIREQAIPVSRYDDPAIASGGLTTSIVAIVTDVVRDGRPVTGYGYASAGRFAQGGLIRERFAPRLLAAAEALADDAGTNLDPLRAWRAMMAGEKPGGHGERCVAVGTLDMAIWDAAAKIARVPLHCLIADRLGRAAPARTARVRVYAGGGYRYPRDDLARLSDEMRRIVDLGYTHAKIKIGATDLDVDRRRIEAAAARLADSAHLAVDAMNAYDATNAGDAAAMLAPFGLWWFEDVCDPLDLPLHAQLAAQYAPPIAAGEALFSLAEAKLLDRYGGLRSDRDVLVFDPVHCYGLSGYLQIVDHFVSRGWRRDAFWPHGGHLFSLHVVAALGLGGAEVNPFAFHPFSGLADGERVDAGYAALPSAPGIGFECHARVHAAFRALSVREGHHHHHH | soluble
5 | MPRHFHVALLILVLCGAERARGALRVQLQDYDKNSWRSVLRRVAPEWVLEEFADVKVLSAAENGFQLPKSGLAQIEINKSGRKTVTANTPTDALNAINTYLRTECLSQVSWSNSSFSSGCRKRTSDFINFESKQIRYFGNMCTFSYSFAWWEWPQWERFIDWIALNGFNTVLMPLGQEIIWRDIFMGLGVQRDELDSYFTSQAYLAWHRMGNLKAYGGGLSDAQMLNDHNLAKRIIDRLLELGITPILPTFAGFVPDHLETLFPASKFNRLPRWNNFTSETSCMLSVSPFDPLFQKIGSTFLRHQKKMFGGDVTNMYSADPFNEILPSESAKFDAKFVKQTAQAIMNSCKKVDKNCVWVLQSWSFTYDQWPAWAIKSFLSAIPVGNLLILDLYAEVVPAWQMTSSFQGHHFVWCLLHNFGGSRELRGNLQKIDKGYQLALMKAGSNLVGAGLSMEAIDQNYVVYQFMIDRMWSPEPLPLNNWLKAYSESRYSADFKVAQKFWTLLAGTFYNQPEKWGTPRFSVFLYHRPGFGRKIEYWFPVEETFSRFRELLPALVHVLGEHPLFREDLNDVMREMTQFEMGNEAALSMSEAFLMEDKQQVGASCEMLMEMFQKLESYSNRDVRQWIENAKSIAPTSEERQVFPVTAGDILTVWGPTGQNLDYAHREWAGLMSGYYGRRWQYFCDWILEHDDFNHTEFSISVFRDVERPFSISNI | not soluble
6 | MGSDKIHHHHHHIANVETSSRNAIGFNVLSNAAETRATPTTNTNLKNTDFDVFAFTADGTAFMGKNDTEFEHDGVKIVYKNGKWDYDNASDLRYWPTEALDFYAFNPGTVSEDMMAFYSWEATKDVQKISYTCMDEYGSGTTHANYDVMYAMAKGQTKDMNNGIVKFNFKHILSQVVFKAKTQYDNMQVDIDVIKIHNFKFAGAFTLPAAADGTGSWSSSDLAFPHAFTVVKNANITVNSNTEATDITTNTPMLNIPQELTAWKVSETATKSKLEADNAKQCYLEIACKIRQSGAYLLGSASEYKTIYVPFGDTWEQGKRHIYTLIFGGGYDDQGEAVLNPIQFDAETTGWVDADKDVNVQP | not soluble
7 | MGSDKIHHHHHHMYSSEKMQWFAMRATYRRGMQIKGLLDQKGINSFIPMRYEIHLKNGHRRRELVPVIRDIVFVHTTQSELQRIKYGIPYFQYMMDIRNGEKIIVPDEQMRRFIAVAGTYDEQIIFFSPDEVNLRKGTKVRITGGQFEGYEGVFVKVKGSRDRRVVISLQGILALAMATLSPDLIEVIEEPKKRNHD | not soluble
8 | AHHHHHHGSKIARVNGLWITIPNVRYSFFNTPYIGHRIGTAVDVYFEDRALFPFEEGKLIEVRKIRTPRYIPVDHDYLMVFKLGEFCLKVLHVDPSVKIGEKVFLGDEIGKLRLSGFFSPWSDKHAHFEVRDCNDRYRARGAFPLFPEVKPLVPIVKGNTFEVVERKGHYLWLKPLETKGKGMTPLGNIEGGLPHYRYGAIFSGREGKLFGIDVKAQEILENGVGIFKPNFEVLANGVKVRGIGVYCNEERVKLIGGNFEVGDIIKIEIKARLGT | not soluble
9 | MGSDKIHHHHHHSCTSQKKKLAKMHTEDTIVKAQLIQHTKESLLSPYQHVNFQLDLTKNKTAFYGYNTGSKWELWVKTDSTITFKYDGEEMVFSSAKTTEAQDNPVVKYHSKTIVSNPSQPGLKKSITVMIRDEKYLDEIQGTYVPLSVRIEVEDHTNKTTVIYAGGGFYVVNPIIHDIWVLDSMSNVKVSAENFPLGAPRLEFHLDGGKIYGFSGCNEITATFYTIQNQIQLNSEISTLKSCVHVPLEPLFMGALANKRYYYSFEERRLKLKHRDGSILSFKKVD | not soluble
10 | MSFILPSESIDGTHPCNGLHMNGQDSLVQPLLTDFYQITMCYAYWKTGTHNEPAVFDVFFRKNPFQGEFTVFAGLEDCLRFVENFKFSQSDIDYVKKILPENAEPEFYEYLETLNGSHLTIEAVAEGSVVFPKVPLLTINGPLAMCQLIETSILNLVNYASLVATNAARFRQASGWKIQLLEFGLRRAQGPNGGLTASKYCYIGGFDATSNVLAGKLYGIPVKGTQAHSFICSFSSPAELKVRLLNHKITNEKADLFQISMEKRAWLLDQFSWKAALSEVSDGELSAFVAYAIAFPDTFLALIDTYDVIRSGVVNFVAVSLALHDLGYRSMGCRIDSGDLSYLSKELRECFVKVSTLKGEYKFFEKMSIVASNDINEETIMSLNDQQHEINAFGVGTHLVTCQKQPALGCVYKLVAQSAQPKIKLSQDVTKITIPGKKKCYRIFGKNGYAILDLMMLEDEPEPQPNQQILCRHPFEVESKRALVNANKIIKLHNVYWKDGEMITPLPTLNEIKEHVNESIRSTLRQDHRRYLNPTPYKVSVSERLYQFLHTLWLQNAPIGQLE | soluble
11 | SADWARAQSPGAVEEILDRENKRMADSLASKVTRLKSLALDIDRDAEDQNRYLDGMVRAHGVRVSVPCPSTTCCRACSVSFSTGAGGWSNHHFCVILLGFLP | soluble
12 | MGHHHHHHSHMIINWNQVSVLWKCLLKQSASYQDRRQSWRRASMKETNRRKSLHPIHQGITELSRSISVDLAESKRLGCLLLSSFQFSIQKLEPFLRDTKGFSLESFRAKASSLSEELKHFADGLETDGTLQKCFEDSNGKASDFSLEASVAEMKEYITKFSLERQTWDQLLLHYQQEAKEILSRGSTEAKITEVKVEPMTYLGSSQNEVLNTKPDYQKNYRTRAKSLTVWSW | not soluble
13 | GPGGALPTCPACHKITPRTEAPVSSVSNSLENALHTSAHSTEESLPKRPLGKHSKVSVEKIDLKGLSHTKNDRNVECSFEVLWSDSSITSVTKSSSEVTEFISKLCQLYPEENLEKLIPCLAGPDAFYVERNHVDLDSGLRYLASLPSHVLKNDHVRRFLSTSSPPQQLQSPSPGNPSLSKVGTVMGVSGRPVCGVAGIPSSQSGAQHHGQHPAGSAAPLPHCSHAGSAGSALAYRTQMDTSPAILMPSSLQTPQTQEQNGILDWLRKLRLHKYYPVFKQLSMEKFLSLTEEDLNKFESLTMGAKKKLKTQLELEKEKSERRCLNPSAPPLVTSSGVARVPPTSHVGPVQSGRGSHAAELRVEVEQPHHQLPREGSSSEYSSSSSSPMGVQAREESSDSAEENDRRVEIHLESSDKEKPVMLLNHFTSSSARPTAQVLPVQNEASSNPSGHHPLPPQMLSAASHITPIRMLNSVHKPERGSADMKLLSSSVHSLLSLEERNKGSGPRSSMKVDKSFGSAMMDVLPASAPHQPVQVLSGLSESSSMSPTVSFGPRTKVVHASTLDRVLKTAQQPALVVETSTAATGTPSTVLHAARPPIKLLLSSSVPADSAISGQTSCPNNVQISVPPAIINPRTALYTANTKVAFSAMSSMPVGPLQGGFCANSNTASPSSHPSTSFANMATLPSCPAPSSSPALSSVPESSFYSSSGGGGSTGNIPASNPNHHHHHHHQQPPAPPQPAPPPPGCIVCTSCGCSGSCGSSGLTVSYANYFQHPFSGPSVFTFPFLPFSPMCSSGYVSAQQYGGGSTFPVVHAPYSSSGTPDPVLSGQSTFAVPPMQNFMAGTAGVYQTQGLVGSSNGSSHKKSGNLSCYNCGATGHRAQDCKQPSMDFNRPGTFRLKYAPPAESLDSTD | soluble
14 | ENRLVVIVLRGAMDGLDLVRPVGDPLFATYRPRLAQDGQKGEGGVIPLSEGFVLHPLLNGLSALWRKGELGFVHAVSTPYRDKRSHFDGQDMLEAGTGPDVPPGVARDGWLNRMLQAVPGLEAETAWAIGRDPLPLMEGEAPVRVWSPDLALDLSAQNRRLLEELYHEDPLFRDVGTEALELAAKLSHGAGGEGPRDAKKDLAAIDELAAFAASQLRGAARIAAFSLSGWDTHRNQAAAIRKPLLKLQRMLLQLQAELGPVWDRTAILAMTEFGRTARENGSAGTDHGTAGAMIMAGGAIRGGRVLGRWPGLDEAALYDRRDLMPTSDVRAWAAWTMRSLYGFDRELLERSVFPGIEMREDPGLVL | not soluble
15 | MIPQRIKELEAYKTEVTPASVRLSSNEFPYDFPEEIKQRALEELKKVPLNKYPDPEAKELKAVLADFFGVKEENLVLGNGSDELIYYLSIAIGELYIPVYIPVPTFPMYEISAKVLGRPLVKVQLDENFDIDLERSIELIEKEKPVLGYFAYPNNPTGNLFSRGKIEEIRNRGVFCVIDEAYYHYSGETFLEDALKREDTVVLRTLSKIGMASLRVGILIGKGEIVSEINKVRLPFNVTYPSQVMAKVLLTEGREFLMEKIQEVVKERERMYDEMKKIEGVEVFPSKANFLLFRTPYPAHEVYQELLKRDVLVRNVSYMEGLQKCLRVSVGKPEENNKFLEALEESIKSLSSSL | soluble
16 | MRRYFGTDGVRGEAGKPPLTPEFVLKLGQAAGAYFLAQEKRPVVLLAKDTRESSDLLEAALAAGLMSQGVRVEHLGVLPTPGVAHLTKALKATAGAVISASHNPYQDNGIKFFGPTGEKLPDGAEEEIERLLLEDHPTRGIGTVGDFREAERMYLDFLLAHAPDLTGLKVGLDLAHGATYRIGPKLFQKAGAEVMAFFNTPDGRNINRGCGSTHPEALSRFVVELGLDLGIAFDGDGDRVQFIDRKGRLFHGDHVLYLAALAFGEKGVVGTVMSNMALEVALKERGLAFHRAAVGDRYVLEKLKETGLALGGEPSGHVIFLRHHTTGDGLLTALLTLKALKALGGDLADWYEALPLYPQVLLNVRVSDKAKVMADPRLGEAVREAEARLGGRGRVNVRPSGTEPVVRVMVEAEEGAEEVARELAERVRALSQEAQAV | soluble
